Experimental data published in PMC4805503 (Traffic (Copenhagen, Denmark), 2016).
Positions count from the first letter of the chain named. Names and notes keep the numbering of the source.

Assays:
tepsin (Homo sapiens) = tepsin (Homo sapiens) (UniProt Q96N21); settings: cited from earlier work
[1] = biological target: T1, AP4 β4 C-terminal appendage domain (residues 612–739), wild type (UniProt Q9Y6B7 612-739); experiment: ITC
T1 sequence (looked up): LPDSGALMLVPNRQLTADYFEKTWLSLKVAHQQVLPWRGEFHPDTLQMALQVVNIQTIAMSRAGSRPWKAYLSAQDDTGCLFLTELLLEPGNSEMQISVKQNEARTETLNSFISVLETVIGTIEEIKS

[2] = biological target: T1, AP4 β4 C-terminal appendage domain …; experiment: pull-down

AP4 ε appendage domain (from UniProt Q9UPM8)
Kd (tepsin (Homo sapiens)): 3 µM

B1: tepsin C-terminal fragment (residues 450–500), GST removed (domain or fragment, UniProt Q96N21 450-500, looked up)
chain: PGGTDSPKRGPSSCAWSRDSLFAGMELVACPRLVGAGAAAGESCPDAPRAP
Kd [1]: 2.9 µM | stoichiometry N [1]: 1

B2: tepsin fragment (residues 450–500) L476S/V477S, GST removed (domain or fragment, UniProt Q96N21 450-500, looked up)
chain: B1 chain with L27S, V28S
fold weaker binding than wild type [1]: ~15 fold

B3: tepsin fragment (residues 450–500) G473I/M474Q, GST removed (domain or fragment, UniProt Q96N21 450-500, looked up)
chain: B1 chain with G24I, M25Q
Kd [1]: > 300 µM

B4: tepsin fragment (residues 450–500) L470S/F471S, GST removed (domain or fragment, UniProt Q96N21 450-500, looked up)
chain: B1 chain with L21S, F22S
Kd [1]: > 300 µM

B5: GST-tepsin (residues 450–525) (domain or fragment, UniProt Q96N21 450-525, looked up)
chain: PGGTDSPKRGPSSCAWSRDSLFAGMELVACPRLVGAGAAAGESCPDAPRAPQTSSQRTAAKEPPGSEPSAFAFLNA
binding result [2]: binds
